T1: g1mIFN-α9 (mouse, UniProt P09235 24-190)
T1 construct: also called murine IFN-α9 (Gaussia luciferase fusion); not shown: Gaussia luciferase fusion partner
T1 sequence (looked up): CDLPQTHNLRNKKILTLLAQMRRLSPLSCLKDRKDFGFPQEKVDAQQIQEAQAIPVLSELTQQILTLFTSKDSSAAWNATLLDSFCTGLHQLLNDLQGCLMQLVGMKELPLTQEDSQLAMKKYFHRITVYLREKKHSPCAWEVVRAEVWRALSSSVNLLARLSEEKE

T2: g1mIFN-α1 (mouse, UniProt P01572 24-189)
T2 construct: also called murine IFN-α1 (Gaussia luciferase fusion); not shown: Gaussia luciferase fusion partner
T2 sequence (looked up): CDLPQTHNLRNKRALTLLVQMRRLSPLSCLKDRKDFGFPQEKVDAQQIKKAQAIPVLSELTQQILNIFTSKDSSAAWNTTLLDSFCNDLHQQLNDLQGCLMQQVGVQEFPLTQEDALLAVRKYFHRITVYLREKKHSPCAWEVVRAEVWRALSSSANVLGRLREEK

T3: human Fc fusion mouse IFN-α2 (mouse, UniProt P01573 24-190)
T3 construct: bought (SinoBiological); also called murine IFN-α2; murine INFA2; not shown: human Fc
T3 sequence (looked up): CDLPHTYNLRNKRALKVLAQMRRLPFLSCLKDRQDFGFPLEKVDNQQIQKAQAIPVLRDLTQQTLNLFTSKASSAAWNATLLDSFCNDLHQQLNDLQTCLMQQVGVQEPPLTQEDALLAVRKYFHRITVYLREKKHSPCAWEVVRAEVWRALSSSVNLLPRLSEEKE

T4: human Fc fusion mouse IFN-α4 (mouse, UniProt P07351 25-186)
T4 construct: bought (SinoBiological); also called murine IFN-α4; not shown: human Fc
T4 sequence (looked up): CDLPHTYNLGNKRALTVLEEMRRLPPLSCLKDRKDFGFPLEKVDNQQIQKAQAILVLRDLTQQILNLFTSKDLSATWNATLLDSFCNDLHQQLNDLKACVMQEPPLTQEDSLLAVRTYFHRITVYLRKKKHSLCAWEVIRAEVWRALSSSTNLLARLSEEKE

T5: peptide 22 of human IFN-α2 (human)
T5 construct: spotted on a microarray through a linker
T5 peptide: YTELYQQLNDLEACVIQG

T6: peptide 23 of human IFN-αW (IFN-ω) (human)
T6 construct: spotted on a microarray through a linker
T6 peptide: TGLHQQLQHLETCLLQVV


Experiments:
g1mIFN-α9 = target: T1, g1mIFN-α9; test: LIPS
g1mIFN-α1 = target: T2, g1mIFN-α1; test: LIPS
human IFN-α1 [1] = target: T7, human IFN-α1 (human, UniProt P0DY56 24-189); test: ELISA or LIPS (Table 7 summary)
T7 construct: commercial recombinant protein; also called IFN-alpha 1beta; IFN-α1/13
T7 sequence (P0DY56 entry or part of it limits assumed): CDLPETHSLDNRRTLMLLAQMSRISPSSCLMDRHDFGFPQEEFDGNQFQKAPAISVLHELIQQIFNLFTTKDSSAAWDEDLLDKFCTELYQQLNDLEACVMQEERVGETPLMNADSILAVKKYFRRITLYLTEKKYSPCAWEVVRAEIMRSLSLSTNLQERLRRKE

human IFN-α21 [2] = target: T8, human IFN-α21 (human, UniProt P01568 24-189); test: ELISA or LIPS (Table 7 summary)
T8 construct: commercial recombinant protein; also called rhIFN-α21; IFN-α21 (PBL)
T8 sequence (P01568 24-189 limits assumed): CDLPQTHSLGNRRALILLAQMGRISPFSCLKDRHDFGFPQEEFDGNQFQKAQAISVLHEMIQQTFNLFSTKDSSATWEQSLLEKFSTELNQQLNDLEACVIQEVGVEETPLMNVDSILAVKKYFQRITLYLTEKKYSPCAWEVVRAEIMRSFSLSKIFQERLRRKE

human IFN-α10 [3] = target: T9, human IFN-α10 (human, UniProt P01566 24-189); test: ELISA or LIPS (Table 7 summary)
T9 construct: recombinant protein; also called rhIFN-α10
T9 sequence (P01566 24-189 limits assumed): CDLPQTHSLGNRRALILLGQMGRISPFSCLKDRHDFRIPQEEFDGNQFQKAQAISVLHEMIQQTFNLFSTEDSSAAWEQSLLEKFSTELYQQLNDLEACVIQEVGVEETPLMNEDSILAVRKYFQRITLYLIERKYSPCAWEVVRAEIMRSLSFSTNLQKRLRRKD

human IFN-α16 [4] = target: T10, human IFN-α16 (human, UniProt P05015 24-189); test: ELISA or LIPS (Table 7 summary)
T10 construct: recombinant protein; also called rhIFN-α16
T10 sequence (P05015 24-189 limits assumed): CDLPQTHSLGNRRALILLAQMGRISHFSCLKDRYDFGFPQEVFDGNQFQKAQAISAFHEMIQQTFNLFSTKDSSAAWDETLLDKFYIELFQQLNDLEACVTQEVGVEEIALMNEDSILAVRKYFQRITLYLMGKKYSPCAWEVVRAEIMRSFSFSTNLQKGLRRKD

human IFN-α1 [5] = target: T7, human IFN-α1; test: cell-based or functional assay
human IFN-α21 [6] = target: T8, human IFN-α21; test: cell-based or functional assay
human IFN-α7 = human IFN-α7 (human, UniProt P01567 24-189); test: cell-based or functional assay
Chain of human IFN-α7 (P01567 24-189 limits assumed): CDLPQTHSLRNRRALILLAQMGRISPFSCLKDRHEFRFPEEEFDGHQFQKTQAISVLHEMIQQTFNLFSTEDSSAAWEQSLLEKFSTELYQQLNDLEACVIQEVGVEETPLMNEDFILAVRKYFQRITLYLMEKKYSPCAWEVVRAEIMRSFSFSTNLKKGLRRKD

human IFN-α4 [7] = target: T11, human IFN-α4 (human, UniProt P05014 24-189); test: cell-based or functional assay
T11 sequence (P05014 24-189 limits assumed): as the sequence (P01566 24-189 limits assumed) above, with G19A, P26H, R37G, I38F, Q40E, N46H, I132T, R134K counted along it

human IFN-α5 = human IFN-α5 (human, UniProt P01569 24-189, limits assumed); test: cell-based or functional assay
Chain of human IFN-α5 (P01569 24-189 limits assumed): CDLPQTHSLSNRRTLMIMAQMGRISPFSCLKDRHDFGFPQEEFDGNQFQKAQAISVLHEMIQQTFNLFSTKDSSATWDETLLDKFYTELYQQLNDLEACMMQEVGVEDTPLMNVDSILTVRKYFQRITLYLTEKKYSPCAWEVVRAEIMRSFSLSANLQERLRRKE

human IFN-α17 = human IFN-α17 (human, UniProt P01571 24-189); test: cell-based or functional assay
Chain of human IFN-α17 (P01571 24-189 limits assumed): as the sequence (P01566 24-189 limits assumed) above, with G19A, R37G, I38L, A51T, D95N, V106M, I132T, R134K, R161I counted along it

human IFN-α10 [8] = target: T9, human IFN-α10; test: cell-based or functional assay
human IFN-α16 [9] = target: T10, human IFN-α16; test: cell-based or functional assay
human IFN-α14 [10] = target: T12, human IFN-α14 (human, UniProt P01570 24-189); test: cell-based or functional assay
T12 sequence (P01570 24-189 limits assumed): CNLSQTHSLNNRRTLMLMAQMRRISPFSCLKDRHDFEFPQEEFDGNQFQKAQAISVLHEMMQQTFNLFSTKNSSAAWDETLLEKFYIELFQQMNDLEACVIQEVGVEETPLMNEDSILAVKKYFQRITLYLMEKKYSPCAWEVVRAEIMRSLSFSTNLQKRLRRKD

human IFN-α6 = human IFN-α6 (human, UniProt P05013 24-189, limits assumed); test: cell-based or functional assay
Chain of human IFN-α6 (P05013 24-189 limits assumed): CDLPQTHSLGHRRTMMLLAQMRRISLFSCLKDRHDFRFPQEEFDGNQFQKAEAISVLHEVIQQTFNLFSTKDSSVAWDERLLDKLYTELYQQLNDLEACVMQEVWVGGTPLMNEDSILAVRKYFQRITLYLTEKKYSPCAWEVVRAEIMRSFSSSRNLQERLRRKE

human IFN-α14 [11] = target: T12, human IFN-α14; test: ELISA or LIPS (Table 7 summary)
[12] = target: T3, human Fc fusion mouse IFN-α2; test: ELISA, human Fc fusion mouse IFN-α
Procedure: (§1) 96 well microplates (Costar, USA) were coated with human IFN-α1, IFN-α2 (ImmunoTools), IFN-α4 (SinoBiological), IFN-α5, IFN-α6, IFN-α8, IFN-α21 (all form PBL) and IFN-α14 (ATGen) or IFN-α8 (Novus Biologicals). Plates were washed with PBS-T and blocked 1 h at room temperature with PBS containing 2% BSA (Sigma, Buchs, Switzerland). Patient sera, B cell conditioned medium, or recombinant antibody preparations were incubated for 2 h at room temperature. Binding of human IgG to the antigen of interest was determined using a horseradish peroxidase conjugated goat anti human Fe-gamma-specific antibody (Jackson ImmunoResearch, Europe Ltd., Cambridgeshire, UK) followed by measurement of the HRP activity using a TMB substrate solution (TMB, Sigma, Buchs, Switzerland).

[13] = target: T4, human Fc fusion mouse IFN-α4; test: ELISA, human Fc fusion mouse IFN-α
Procedure: as §1

[14] = target: T5, peptide 22 of human IFN-α2; test: peptide microarray, 18mer peptides of human IFN-α2
[15] = target: T6, peptide 23 of human IFN-αW (IFN-ω); test: peptide microarray, 18mer peptides of human IFN-αW
human IFN-ω = human IFN-ω (human, UniProt P05000 24-195, limits assumed); test: cell-based or functional assay
Chain of human IFN-ω (P05000 24-195 limits assumed): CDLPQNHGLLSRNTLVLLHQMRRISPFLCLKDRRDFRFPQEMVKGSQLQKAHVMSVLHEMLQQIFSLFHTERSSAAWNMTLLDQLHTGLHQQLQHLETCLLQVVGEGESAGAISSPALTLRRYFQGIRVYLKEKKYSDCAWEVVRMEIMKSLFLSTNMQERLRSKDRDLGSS

g1 IFN-α10 = target: T13, g1 IFN-α10 (human, UniProt P01566 24-189); test: LIPS, IFN-Gaussia luciferase fusion proteins
T13 construct: in-house fusion; also called IFN-α10-Gaussia luciferase fusion protein; not shown: Gaussia luciferase (naturally secreted), N-terminal fusion partner
T13 sequence (P01566 24-189): as the sequence (P01566 24-189 limits assumed) above

human IFN-α4 [16] = target: T11, human IFN-α4; test: ELISA or LIPS (Table 7 summary)

Row | Binder | binding result (g1mIFN-α9) | binding result (g1mIFN-α1) | binding result (human IFN-α1 [1]) | binding result (human IFN-α16 [4]) | IC 50 (ng/ml), ISRE dual luciferase reporter assay (human IFN-α1 [5]) | IC 50 (ng/ml), ISRE dual luciferase reporter assay (human IFN-α21 [6]) | IC 50 (ng/ml), ISRE dual luciferase reporter assay (human IFN-α7) | IC 50 (ng/ml), ISRE dual luciferase reporter assay (human IFN-α4 [7]) | IC 50 (ng/ml), ISRE dual luciferase reporter assay (human IFN-α5) | IC 50 (ng/ml), ISRE dual luciferase reporter assay (human IFN-α17) | IC 50 (ng/ml), ISRE dual luciferase reporter assay (human IFN-α10 [8]) | IC 50 (ng/ml), ISRE dual luciferase reporter assay (human IFN-α16 [9]) | IC 50 (ng/ml), ISRE dual luciferase reporter assay (human IFN-α14 [10]) | IC 50 (ng/ml), ISRE dual luciferase reporter assay (human IFN-α6) | binding result [12] | binding result [13] | IC 50 (ng/ml), ISRE dual luciferase reporter assay (human IFN-ω) | further results
1 | 25C3 (antibody, human IgG1, kappa, V domains shown, human-derived IgG1, kappa; also called MAB 25C3; hMAB 25C3) VH: EMQLMESGGGLVQPGGSLRLSCVASGFTFKSFAMSWVRQAPGKGLEWVASVGSQGGSKYYAPSVKGRFSISRDNSNNTLYVQMNSLGVEDTAFYYCVKETDAVATMDALDMWGQGTLVIVST VL: DIRVTQSPSSLSASVGDRVSISCQTSQSVNIYLNWYQQRPGKGPQLLISAASTLQSGVPSRFSGSGSGTDFILTIISLQPEDSASYYCQQGYITPYTFGQGTKVEIKR | no binding | no binding | binds | binds |  |  |  |  |  |  |  |  |  |  |  |  |  | binding result (human IFN-α21 [2]): binds; binding result (human IFN-α10 [3]): binds
2 | 12H5 (antibody, human IgG1, kappa, V domains shown) VH: QVQLIQSGPEVKRPGASVKVSCKASENTFDTHYINWVRQAPGQGLTWLGWLNPTTGKTGFPQKFKGRVILTSDTSLNTAYMEVSRLTSEDTAVYFCARVLKLSDEYNYGFDVWGQGTTVIVSS VL: DIQVTQSPSSLSASIGDRVTITCRASQNILTFINWYQHKPGKAPKLLIYAASVLQNEVPSRFSGSGSGTDFTLTITSLQPDDFGTYYCQQTYLTPQCSFGQGTKVEIKR |  |  |  |  | 51.3 ng/mL | 13 ng/mL | 0.64 ng/mL | 0.48 ng/mL | 22.6 ng/mL | 0.75 ng/mL | 0.66 ng/mL | 33 ng/mL | 2.15 ng/mL | 3.55 ng/mL |  |  |  | 
3 | 13B11 (antibody, human IgG1, kappa, V domains shown, human-derived IgG1, kappa; also called MAB 13B11; hMAB 13B11) VH: DVQLLQSGGGLIQPGGSLRLSCAASGFTFKDYAMSWVRQAPGKGLEWVSVISRSGNIVDYVDSVKGRFTVSRDNSNNTLFLQMDGLRADDTAIYYCAKPKDMIVVVPAGFDSWGQGTLVSVSS VL: DIQMTQFPSTLSASVGDSVTITCRASQSISAWLAWYQQKPGKAPKLLIYKGSRLENGVPSRFSGSGSGTEFTLTIGSLQPDDFATYYCQQYKTWTFGQGTKVEIKR | no binding | no binding | binds | binds |  |  |  |  |  |  |  |  |  |  | no binding | no binding |  | binding result (human IFN-α14 [11]): binds
4 | 26B9 (antibody, human IgG1, kappa, V domains shown, human-derived IgG1, kappa; also called MAB 26B9; hMAB 26B9) VH: QILLQESGPGLVKPTETLSLTCSVSGDSISDSSHYWAWIRQPPGKGPEWIGSVYFSSMTHYNPSLKSRVSISVDKPKNQFSLKVTSVTVADTATYYCARQALARVGAMNWFDPWGQGSLVTVSS VL: DIIMTQSPDSLPVSLGEGVTINCKSSQSVFFTSSNKSCLAWYQQKPGKSPKLLIYWASTRQSGVPDRFRGSGSGTDFSLTITSLQAEDVAVYFCQQCQTSPPTFGGGTRLEIKR | no binding | no binding |  |  | 8.6 ng/mL | 4.65 ng/mL | 1.57 ng/mL | 2.07 ng/mL | 3.74 ng/mL | 2.22 ng/mL | 1.84 ng/mL | 4010 ng/mL | 2.01 ng/mL | 3.16 ng/mL | no binding | no binding | 0.5 ng/mL | binding result [14]: binds; binding result [15]: binds
5 | 31B4 (antibody, human IgG1, kappa, V domains shown, human-derived IgG1, kappa; clonally related to 26B9; also called MAB 31B4; hMAB 31B4) VH: QIQLQESGPGLVRPTETLSLTCSVSGDSISQSSHYWAWIRQPPGKGPEWIGSVYFSSMTHYNPSLTSRVSISIDKAMNKFSLKVTSVTVADTATYYCARQALARVGAMNWFDPWGQGSLVTVSS VL: DIIMTQSPESLPVSLGEGVTINCKSSQSVFFTSSNRSCLAWYQQKPGQSPKLLIYWASTRQSGVPDRFTGSGSGTDFSLTIAGLQVEDVAVYFCQQCHASPPTFGGGTRLELRR | no binding | no binding | binds | binds |  |  |  |  |  |  |  |  |  |  | no binding | no binding |  | binding result (g1 IFN-α10): binds; binding result (human IFN-α21 [2]): binds; binding result (human IFN-α4 [16]): binds; binding result (human IFN-α10 [3]): binds; binding result (human IFN-α14 [11]): binds
6 | 50E11 (antibody, human IgG1, kappa, V domains shown) VH: QVQLVQSGAEMKKPGSSVKVSCKDFGGTFSVYGVNWVRQAPGQGLEWMGGLIPVIGPANYAQKFQGRITITADESTSTAYMELSSLRFDDTAIYYCVRDDNEYWGQGTLVTVSS VL: EMVLTQSPATLSLSPGERATLSCRASQTVSTFLAWYQQKPGQVPRLLVYDISSRANGTPARFSGGGSGTDFTLTISSLELEDFAVYYCQWRSNWPPSLTFGGGTRVEIKR |  |  |  |  | 97.4 ng/mL | 3.05 ng/mL | 1.9 ng/mL | 20.2 ng/mL | 0.91 ng/mL | 2.31 ng/mL | 3.63 ng/mL | 2.35 ng/mL | 9.2 ng/mL | 39.3 ng/mL |  |  | 113 ng/mL | 
7 | 8H1 (antibody, human IgG1, kappa, V domains shown) VH: QVQLVQSGAEVKKPGASVKVSCKASGQTFTSDDINWVRQAPGQGLEWMGWRNPNTQDTGYAQKFHGRLTLTSNSSISTSYLELSGLRSEDTAVYYCARAGTSTLTGHYFALGVWGQGTTVIVSS VL: DIQLTQSPSSLSASVGDRVTITCQATQDISKYLNWYQQKPGKVPKLLIYETSNLEVGVPSRFSGSGSGTHFTLTISSLQAEDFATYYCQQYENFPFTFGGGTKVEIKR |  |  |  |  | 29 ng/mL | 2.78 ng/mL | 0.9 ng/mL | 5.43 ng/mL | 1.78 ng/mL | 2.11 ng/mL | 2.69 ng/mL | 1.86 ng/mL | 785 ng/mL | 77.7 ng/mL |  |  | 2.13 ng/mL | 

From US20190071499A1 (published 2019)
